# Reference: IntAct's records for PubMed 20561531
# B1: PRKC apoptosis WT1 regulator protein (Homo sapiens), Q96IZ0 (parent)
# chain: MATGGYRTSSGLGGSTTDFLEEWKAKREKMRAKQNPPGPAPPGGGSSDAAGKPPAGALGTPAAAAANELNNNLPGGAPAAPAVPGPGGVNCAVGSAMLTRAAPGPRRSEDEPPAASASAAPPPQRDEEEPDGVPEKGKSSGPSARKGKGQIEKRKLREKRRSTGVVNIPAAECLDEYEDDEAGQKERKREDAITQQNTIQNEAVNLLDPGSSYLLQEPPRTVSGRYKSTTSVSEEDVSSRYSRTDRSGFPRYNRDANVSGTLVSSSTLEKKIEDLEKEVVRERQENLRLVRLMQDKEEMIGKLKEEIDLLNRDLDDIEDENEQLKQENKTLLKVVGQLTR
# Variants of: B1
# Settings: with spsb2_mouse Spsb2, O88838
# Chain of spsb2_mouse Spsb2, O88838 (O88838 whole entry): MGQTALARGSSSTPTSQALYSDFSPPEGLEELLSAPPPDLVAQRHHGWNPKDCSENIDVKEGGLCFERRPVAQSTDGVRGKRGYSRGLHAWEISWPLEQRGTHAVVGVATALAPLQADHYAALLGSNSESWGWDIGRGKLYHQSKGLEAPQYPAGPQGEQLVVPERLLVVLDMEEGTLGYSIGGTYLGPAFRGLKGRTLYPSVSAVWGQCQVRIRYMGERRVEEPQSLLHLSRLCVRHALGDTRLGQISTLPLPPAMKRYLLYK
row,Variant,effect of a mutation on the interaction
1,MATGGYRTSSGLGGSTTDFLEEWKAKREKMRAKQNPPGPAPPGGGSSDAAGKPPAGALGTPAAAAANDLNNNLPGGAPAAPAVPGPGGVNCAVGSAMLTRAAPGPRRSEDEPPAASASAAPPPQRDEEEPDGVPEKGKSSGPSARKGKGQIEKRKLREKRRSTGVVNIPAAECLDEYEDDEAGQKERKREDAITQQNTIQNEAVNLLDPGSSYLLQEPPRTVSGRYKSTTSVSEEDVSSRYSRTDRSGFPRYNRDANVSGTLVSSSTLEKKIEDLEKEVVRERQENLRLVRLMQDKEEMIGKLKEEIDLLNRDLDDIEDENEQLKQENKTLLKVVGQLTR [E68D],increasing interaction
2,MATGGYRTSSGLGGSTTDFLEEWKAKREKMRAKQNPPGPAPPGGGSSDAAGKPPAGALGTPAAAAANELNANLPGGAPAAPAVPGPGGVNCAVGSAMLTRAAPGPRRSEDEPPAASASAAPPPQRDEEEPDGVPEKGKSSGPSARKGKGQIEKRKLREKRRSTGVVNIPAAECLDEYEDDEAGQKERKREDAITQQNTIQNEAVNLLDPGSSYLLQEPPRTVSGRYKSTTSVSEEDVSSRYSRTDRSGFPRYNRDANVSGTLVSSSTLEKKIEDLEKEVVRERQENLRLVRLMQDKEEMIGKLKEEIDLLNRDLDDIEDENEQLKQENKTLLKVVGQLTR [N71A],disrupting interaction
3,MATGGYRTSSGLGGSTTDFLEEWKAKREKMRAKQNPPGPAPPGGGSSDAAGKPPAGALGTPAAAAANEINNNLPGGAPAAPAVPGPGGVNCAVGSAMLTRAAPGPRRSEDEPPAASASAAPPPQRDEEEPDGVPEKGKSSGPSARKGKGQIEKRKLREKRRSTGVVNIPAAECLDEYEDDEAGQKERKREDAITQQNTIQNEAVNLLDPGSSYLLQEPPRTVSGRYKSTTSVSEEDVSSRYSRTDRSGFPRYNRDANVSGTLVSSSTLEKKIEDLEKEVVRERQENLRLVRLMQDKEEMIGKLKEEIDLLNRDLDDIEDENEQLKQENKTLLKVVGQLTR [L69I],increasing interaction
4,MATGGYRTSSGLGGSTTDFLEEWKAKREKMRAKQNPPGPAPPGGGSSDAAGKPPAGALGTPAAAAANELANNLPGGAPAAPAVPGPGGVNCAVGSAMLTRAAPGPRRSEDEPPAASASAAPPPQRDEEEPDGVPEKGKSSGPSARKGKGQIEKRKLREKRRSTGVVNIPAAECLDEYEDDEAGQKERKREDAITQQNTIQNEAVNLLDPGSSYLLQEPPRTVSGRYKSTTSVSEEDVSSRYSRTDRSGFPRYNRDANVSGTLVSSSTLEKKIEDLEKEVVRERQENLRLVRLMQDKEEMIGKLKEEIDLLNRDLDDIEDENEQLKQENKTLLKVVGQLTR [N70A],disrupting interaction

# Variants of: B1
# Settings: with spsb4_mouse Spsb4, Q8R5B6
# Chain of spsb4_mouse Spsb4, Q8R5B6 (Q8R5B6 whole entry): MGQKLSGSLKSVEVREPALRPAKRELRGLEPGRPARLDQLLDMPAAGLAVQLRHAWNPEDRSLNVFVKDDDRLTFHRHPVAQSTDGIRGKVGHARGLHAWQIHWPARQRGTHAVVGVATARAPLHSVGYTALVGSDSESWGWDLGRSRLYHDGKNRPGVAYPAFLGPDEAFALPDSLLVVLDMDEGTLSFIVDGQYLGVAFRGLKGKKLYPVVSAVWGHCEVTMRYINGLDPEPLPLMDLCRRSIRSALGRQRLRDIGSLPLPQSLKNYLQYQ
row,Variant,effect of a mutation on the interaction
1,MATGGYRTSSGLGGSTTDFLEEWKAKREKMRAKQNPPGPAPPGGGSSDAAGKPPAGALGTPAAAAANDLNNNLPGGAPAAPAVPGPGGVNCAVGSAMLTRAAPGPRRSEDEPPAASASAAPPPQRDEEEPDGVPEKGKSSGPSARKGKGQIEKRKLREKRRSTGVVNIPAAECLDEYEDDEAGQKERKREDAITQQNTIQNEAVNLLDPGSSYLLQEPPRTVSGRYKSTTSVSEEDVSSRYSRTDRSGFPRYNRDANVSGTLVSSSTLEKKIEDLEKEVVRERQENLRLVRLMQDKEEMIGKLKEEIDLLNRDLDDIEDENEQLKQENKTLLKVVGQLTR [E68D],increasing interaction
2,MATGGYRTSSGLGGSTTDFLEEWKAKREKMRAKQNPPGPAPPGGGSSDAAGKPPAGALGTPAAAAANELNANLPGGAPAAPAVPGPGGVNCAVGSAMLTRAAPGPRRSEDEPPAASASAAPPPQRDEEEPDGVPEKGKSSGPSARKGKGQIEKRKLREKRRSTGVVNIPAAECLDEYEDDEAGQKERKREDAITQQNTIQNEAVNLLDPGSSYLLQEPPRTVSGRYKSTTSVSEEDVSSRYSRTDRSGFPRYNRDANVSGTLVSSSTLEKKIEDLEKEVVRERQENLRLVRLMQDKEEMIGKLKEEIDLLNRDLDDIEDENEQLKQENKTLLKVVGQLTR [N71A],disrupting interaction
3,MATGGYRTSSGLGGSTTDFLEEWKAKREKMRAKQNPPGPAPPGGGSSDAAGKPPAGALGTPAAAAANEINNNLPGGAPAAPAVPGPGGVNCAVGSAMLTRAAPGPRRSEDEPPAASASAAPPPQRDEEEPDGVPEKGKSSGPSARKGKGQIEKRKLREKRRSTGVVNIPAAECLDEYEDDEAGQKERKREDAITQQNTIQNEAVNLLDPGSSYLLQEPPRTVSGRYKSTTSVSEEDVSSRYSRTDRSGFPRYNRDANVSGTLVSSSTLEKKIEDLEKEVVRERQENLRLVRLMQDKEEMIGKLKEEIDLLNRDLDDIEDENEQLKQENKTLLKVVGQLTR [L69I],increasing interaction
4,MATGGYRTSSGLGGSTTDFLEEWKAKREKMRAKQNPPGPAPPGGGSSDAAGKPPAGALGTPAAAAANELANNLPGGAPAAPAVPGPGGVNCAVGSAMLTRAAPGPRRSEDEPPAASASAAPPPQRDEEEPDGVPEKGKSSGPSARKGKGQIEKRKLREKRRSTGVVNIPAAECLDEYEDDEAGQKERKREDAITQQNTIQNEAVNLLDPGSSYLLQEPPRTVSGRYKSTTSVSEEDVSSRYSRTDRSGFPRYNRDANVSGTLVSSSTLEKKIEDLEKEVVRERQENLRLVRLMQDKEEMIGKLKEEIDLLNRDLDDIEDENEQLKQENKTLLKVVGQLTR [N70A],disrupting interaction

# Variants of: B1
# Settings: with spsb2_mouse Spsb2, O88838
# Remark: another data set of the same source
row,Variant,effect of a mutation on the interaction
1,MATGGYRTSSGLGGSTTDFLEEWKAKREKMRAKQNPPGPAPPGGGSSDAAGKPPAGALGTPAAAAANELNNALPGGAPAAPAVPGPGGVNCAVGSAMLTRAAPGPRRSEDEPPAASASAAPPPQRDEEEPDGVPEKGKSSGPSARKGKGQIEKRKLREKRRSTGVVNIPAAECLDEYEDDEAGQKERKREDAITQQNTIQNEAVNLLDPGSSYLLQEPPRTVSGRYKSTTSVSEEDVSSRYSRTDRSGFPRYNRDANVSGTLVSSSTLEKKIEDLEKEVVRERQENLRLVRLMQDKEEMIGKLKEEIDLLNRDLDDIEDENEQLKQENKTLLKVVGQLTR [N72A],disrupting interaction

# Variants of: B1
# Settings: with spsb4_mouse Spsb4, Q8R5B6
# Remark: another data set of the same source
row,Variant,effect of a mutation on the interaction
1,MATGGYRTSSGLGGSTTDFLEEWKAKREKMRAKQNPPGPAPPGGGSSDAAGKPPAGALGTPAAAAANELNNALPGGAPAAPAVPGPGGVNCAVGSAMLTRAAPGPRRSEDEPPAASASAAPPPQRDEEEPDGVPEKGKSSGPSARKGKGQIEKRKLREKRRSTGVVNIPAAECLDEYEDDEAGQKERKREDAITQQNTIQNEAVNLLDPGSSYLLQEPPRTVSGRYKSTTSVSEEDVSSRYSRTDRSGFPRYNRDANVSGTLVSSSTLEKKIEDLEKEVVRERQENLRLVRLMQDKEEMIGKLKEEIDLLNRDLDDIEDENEQLKQENKTLLKVVGQLTR [N72A],disrupting interaction
